# Results reported in US20130184211A1 (NEW YORK UNIVERSITY, published 2013).
# B1: N-terminally hexahistidine-tagged 72-amino acid C-terminal tail of human FGF23 (S180 to I251), FGF23^180-251 (peptide)
# peptide: SAEDDSERDPLNVLKPRARMTPAPASCSQELPSAEDNSPMASDPLGVVRGGRVNTHAGGTGPEGCRPFAKFI
# notes: Expressed in E. coli; also called FGF23 C-terminal tail peptide; C-terminal tail of FGF23; not shown: N-terminal hexahistidine tag (six His)
# Target: T1, 1:1 binary complex of the ectodomains of FGFR1c and Klotho (human; murine, UniProt O35082 35-982)
# T1 construct: range 35-982; also called FGFR1c-Klotho complex; binary FGFR1c-Klotho complex; not shown: C-terminal FLAG tag
# T1 sequence 1: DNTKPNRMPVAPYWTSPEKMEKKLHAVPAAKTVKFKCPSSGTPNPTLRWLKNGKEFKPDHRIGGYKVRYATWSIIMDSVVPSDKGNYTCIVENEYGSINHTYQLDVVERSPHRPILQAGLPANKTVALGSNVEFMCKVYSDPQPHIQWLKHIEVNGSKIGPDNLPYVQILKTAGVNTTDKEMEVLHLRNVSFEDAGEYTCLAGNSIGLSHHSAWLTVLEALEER
# T1 sequence 2: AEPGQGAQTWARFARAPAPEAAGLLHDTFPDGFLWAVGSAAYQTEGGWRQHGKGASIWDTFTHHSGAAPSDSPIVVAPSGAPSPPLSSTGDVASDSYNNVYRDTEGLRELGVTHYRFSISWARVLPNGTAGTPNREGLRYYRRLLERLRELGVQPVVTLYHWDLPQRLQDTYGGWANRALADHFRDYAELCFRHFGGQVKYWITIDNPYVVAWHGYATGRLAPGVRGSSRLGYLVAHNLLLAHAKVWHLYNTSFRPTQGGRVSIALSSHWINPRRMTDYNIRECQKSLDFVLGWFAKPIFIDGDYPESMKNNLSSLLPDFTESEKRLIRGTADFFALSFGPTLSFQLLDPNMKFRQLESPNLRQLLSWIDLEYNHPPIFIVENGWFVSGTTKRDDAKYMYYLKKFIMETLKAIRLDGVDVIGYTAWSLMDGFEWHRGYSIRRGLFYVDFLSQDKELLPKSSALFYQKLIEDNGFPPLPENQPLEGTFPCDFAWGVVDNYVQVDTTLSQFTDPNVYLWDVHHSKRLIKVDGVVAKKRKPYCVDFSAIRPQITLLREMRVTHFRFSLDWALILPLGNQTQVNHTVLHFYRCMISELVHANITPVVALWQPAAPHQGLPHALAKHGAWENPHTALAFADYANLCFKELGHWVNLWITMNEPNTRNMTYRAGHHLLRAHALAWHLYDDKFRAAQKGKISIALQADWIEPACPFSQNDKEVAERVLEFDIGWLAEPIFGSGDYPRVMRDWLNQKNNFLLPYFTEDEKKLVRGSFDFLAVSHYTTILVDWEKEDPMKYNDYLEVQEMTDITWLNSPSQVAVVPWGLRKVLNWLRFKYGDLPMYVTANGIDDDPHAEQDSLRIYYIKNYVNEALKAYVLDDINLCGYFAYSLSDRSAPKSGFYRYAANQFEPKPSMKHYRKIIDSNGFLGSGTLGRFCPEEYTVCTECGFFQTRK
# Assay: SPR competition dose-response: FGF23^180-251 mixed with a fixed concentration of FGFR1c-Klotho, immobilized FGF23^28-251 as competitor; averaged data of two to three experiments
# Method: Increasing concentrations of FGF23²⁸⁻²⁵¹ (0-50 nM) were mixed with a fixed concentration of 1:1 complex of the ectodomains of FGFR1c and Klotho (15 nM and 20 nM, respectively) in HBS-EP buffer, and the mixtures were passed over the FGF23 chip. In the other—reverse—assay, FGF23¹⁸⁰⁻²⁵¹ was immobilized on a chip (˜48.4 fmole/mm² of flow channel). Increasing concentrations of FGF23²⁸⁻²⁵¹ (0-50 nM) were mixed with a fixed concentration of 1:1 complex of the ectodomains of FGFR1c and Klotho (20 nM) in HBS-EP buffer, and the mixtures were passed over the chip. As a control, competition of FGF23 C-terminal tail peptide in solution with immobilized FGF23 C-terminal tail peptide for binding to the binary FGFR1c-Klotho complex was studied. Increasing concentrations of FGF23¹⁸⁰⁻²⁵¹ (0-400 nM) were mixed with a fixed concentration of 1:1 complex of the ectodomains of FGFR1c and Klotho (20 nM) in HBS-EP buffer, and the mixtures were passed over the FGF23¹⁸⁰⁻²⁵¹ chip.
# To fully nail down that the C-terminal tail of FGF23 mediates FGF23 binding to the binary FGFR1c-Klotho complex, a fixed concentration of FGFR1c-Klotho was mixed with increasing concentrations of FGF23¹⁸⁰⁻²⁵¹, and the mixtures were passed over the FGF23 chip. Mixtures of FGF23²⁸⁻²⁵¹ with FGFR1c-Klotho were used as a control. […]
binder,measurement,value
B1,IC50 (read off the curve),~50 nM
